Results as given in the RNAGym collection of RNA variant scans (doi:10.1021/acssynbio.7b00057).

B1: Pistol ribozyme (parent)
chain: GGGUCGUUGUUCCAUAAUCGCGUGGAUAUGGCACGCAAGUUUCUACCGGGCACCGUAAAUGUCCGACUGGAGCCGUUCGGGCGGCUAUAAACAGACCUCAGGCCCGAAGCGUGGCGGCACCUGCCGCCGGUGGUAAAAAAGAUCGGAAGAGCACACGUCU

Variants of: B1
Experiment: aptazyme ON/OFF ratio, guanine; higher = stronger switching; co-transcriptional cleavage with and without guanine

Variant	aptazyme ON/OFF ratio
U7A G9A U11A C12A C13U	1.44
U7A G9A U11A C12A C13G	1.16
U7A G9C U10A U11C C12G C13A	1.08
U7A G9C U10A U11C C12G C13U	1.17
U7A G9C U10A U11C C12G C13G	1.12
U7A G9C U10G U11G C13U	1.1
U7A G9C U10G U11G C13A	1.13
U7A G9C U10G U11G C13G	1.17
U7A G9C U10A U11G C13G	1.06
U7A G9C U10A U11G C13U	1.09
U7A G9C U10A U11G C13A	1.03
U7A G9C U10C U11A C12G C13U	1.25
U7A G9C U10C U11A C12G C13A	1.16
U7A G9C U10C U11A C12G C13G	1.16
U7A G9C U10C U11A C12U C13G	1.08
U7A G9C U10C U11A C12U C13U	1.06
U7A G9C U10C U11A C12U C13A	1.04
U7A G9C U10A U11G C12U C13U	1.16
U7A G9C U10A U11G C12U C13A	1.03
U7A G9C U10A U11G C12U C13G	1.07
U7A G9C U10A U11C C12G	1.21
U7A G9C U10A U11C C12U	1.07
U7A G9C U10A U11C C12A	1.08
U7A G9C U10C U11C	0.989

Variant	aptazyme ON/OFF ratio
U7A G9C U10C U11G	1.02
U7A G9C U10C U11A	1.07
U7A G9A U11C C12U	1.17
U7A G9A U11C C12A	1.18
U7A G9A U11C C12G	1.18
U7A G9C U10G U11G C12G	1.16
U7A G9C U10G U11G C12A	1.11
U7A G9C U10G U11G C12U	1.14
U7A G9C U11A C12U	1.09
U7A G9C U11A C12A	1.07
U7A G9C U11A C12G	1.08
U7A G9C U10C C13G	1.05
U7A G9C U10C C13A	1.01
U7A G9C U10C C13U	1.22
U7A G9C C12U C13A	1.05
U7A G9C C12U C13G	1.07
U7A G9C C12U C13U	1.1
U7A G9C U10C U11C C12G C13A	1.06
U7A G9C U10C U11C C12G C13U	1.02
U7A G9C U10C U11C C12G C13G	1.09
U7A G9U C12A C13U	1.28
U7A G9U C12A C13G	1.21
U7A G9U C12A C13A	1.27
U7A G9A U10G U11G	1.08

Variant	aptazyme ON/OFF ratio
U7A G9A U11A C13U	1.06
U7A G9A U11A C13A	1.17
U7A G9A U11A C13G	1.11
U7A G9C U10A C12U	1.14
U7A G9C U10A C12G	1.13
U7A G9C U10A C12A	1.11
U7A G9C U10A U11A C13U	1.1
U7A G9C U10A U11A C13G	1.03
U7A G9C U10A U11A C13A	1.11
U7A G9U C12A	0.896
U7A G9U C12G	1.39
U7A G9C U10A C12G C13G	1.14
U7A G9C U10A C12G C13A	1.13
U7A G9C U10A C12G C13U	1.17
U7A G9C U10C U11C C12A C13U	1.02
U7A G9C U10C U11C C12A C13G	1.03
U7A G9C U10C U11C C12A C13A	1.02
U7A G9C U10A U11C	1.04
U7A G9C U10A U11A	1.07
U7A G9C U10A U11G	1.09
U7A G9C U10G U11A C13A	1.02
U7A G9C U10G U11A C13U	1.05
U7A G9C U10G U11A C13G	1.06
U7A G9C U10C C12A C13G	1.04

Variant	aptazyme ON/OFF ratio
U7A G9C U10C C12A C13A	1.07
U7A G9C U10C C12A C13U	1.04
U7A G9C U10G U11A C12A C13G	1.08
U7A G9C U10G U11A C12A C13A	1.07
U7A G9C U10G U11A C12A C13U	1.07
U7A G9C U11A C12U C13G	1.07
U7A G9C U11A C12U C13A	1.1
U7A G9C U11A C12U C13U	1.16
U7A G9C U10C C12G C13A	1.03
U7A G9C U10C C12G C13U	1.05
U7A G9C U10C C12G C13G	1.07
U7A G9C U10A U11A C12G	1.06
U7A G9C U10A U11A C12A	1.06
U7A G9C U10A U11A C12U	1.07
U7A G9C U10C U11G C12A C13G	1.05
U7A G9C U10C U11G C12A C13U	1.02
U7A G9C U10C U11G C12A C13A	1.04
U7A G9C U10G U11C C12G C13U	1.17
U7A G9C U10G U11C C12G C13G	1.21
U7A G9C U10G U11C C12G C13A	1.11
U7A G9C U10A U11A C12G C13U	1.1
U7A G9C U10A U11A C12G C13A	1.04
U7A G9C U10A U11A C12G C13G	1.1
U7A G9C U10A U11G C12A C13G	1.07

Variant	aptazyme ON/OFF ratio
U7A G9C U10A U11G C12A C13A	1.11
U7A G9C U10A U11G C12A C13U	1.05
U7A G9C U10C U11G C13A	1.06
U7A G9C U10C U11G C13U	1.08
U7A G9C U10C U11G C13G	1.08
U7A G9C U10C U11C C12U C13U	0.994
U7A G9C U10C U11C C12U C13A	1.05
U7A G9C U10C U11C C12U C13G	1.04
U7A G9A U11G C12G C13A	1.17
U7A G9A U11G C12G C13G	1.24
U7A G9A U11G C12G C13U	1.42
U7A G9C U10A U11A C12U C13U	1.1
U7A G9C U10A U11A C12U C13G	1.1
U7A G9C U10A U11A C12U C13A	1.13
U7A G9A U10G U11C C13A	1.19
U7A G9A U10G U11C C13G	1.11
U7A G9A U10G U11C C13U	1.02
U7A G9C U10C U11A C12U	1.04
U7A G9C U10C U11A C12G	1.1
U7A G9C U10C U11A C12A	1.06
U7A G9A U11G C13U	1.38
U7A G9A U11G C13A	1.26
U7A G9A U11G C13G	1.12
U7A G9A U10G U11G C12U C13A	1.17

Variant	aptazyme ON/OFF ratio
U7A G9A U10G U11G C12U C13G	1.33
U7A G9A U10G U11G C12U C13U	1.26
U7A G9C U11C C12A C13U	1.08
U7A G9C U11C C12A C13A	1.06
U7A G9C U11C C12A C13G	1.05
U7A G9C U10G U11G C12U C13A	1.09
U7A G9C U10G U11G C12U C13U	1.16
U7A G9C U10G U11G C12U C13G	1.12
U7A G9C U10C U11G C12G C13U	1.05
U7A G9C U10C U11G C12G C13G	1.17
U7A G9C U10C U11G C12G C13A	1.07
U7A G9C U11A C12A C13G	1.05
U7A G9C U11A C12A C13U	1.11
U7A G9C U11A C12A C13A	1.03
U7A G9C U10C U11C C13A	1.01
U7A G9C U10C U11C C13U	1.03
U7A G9C U10C U11C C13G	1.01
U7A G9C U10G C12U C13A	1.06
U7A G9C U10G C12U C13G	1.11
U7A G9C U10G C12U C13U	1.56
U7A G9C U10A C12A C13A	1.14
U7A G9C U10A C12A C13U	1.23
U7A G9C U10A C12A C13G	1.09
U7A G9C C12G C13A	1.05

Variant	aptazyme ON/OFF ratio
U7A G9C C12G C13U	1.05
U7A G9C C12G C13G	1.05
U7A G9U C12G C13G	1.3
U7A G9U C12G C13A	1.2
U7A G9U C12G C13U	1.3
U7A G9C U10G U11C C12G	1.08
U7A G9C U10G U11C C12U	1.04
U7A G9C U10G U11C C12A	1.08
U7A G9C U10C C12U C13G	1.01
U7A G9C U10C C12U C13U	1.06
U7A G9C U10C C12U C13A	1.04
U7A G9C U10A U11C C13U	1.05
U7A G9C U10A U11C C13G	1.06
U7A G9C U10A U11C C13A	1.01
U7A G9C U10A U11C C12A C13U	1.09
U7A G9C U10A U11C C12A C13G	1.1
U7A G9C U10A U11C C12A C13A	1.06
U7A G9C U10G U11G C12G C13G	1.13
U7A G9C U10G U11G C12G C13A	1.14
U7A G9C U10G U11G C12G C13U	1.16
U7A G9C U10G U11A C12G C13A	1.07
U7A G9C U10G U11A C12G C13G	1.21
U7A G9C U10G U11A C12G C13U	1.06
